doi:10.1101/2021.12.19.473342

Biological target: BrxR from Escherichia fergusonii ATCC 35469 plasmid pEFER (Escherichia fergusonii ATCC 35469)
Assay: SEC

BrxR from Escherichia fergusonii ATCC 35469 plasmid pEFER (natural protein)
stoichiometry N: 2
